Source: article PMC4813479 (The Journal of Biological Chemistry, 2015)

Molecular target: full-length human αIIbβ3 on CHO K1 cells (human, UniProt P08514 32-1039; P05106 27-788)
Experiment: cell-based or functional assay

AGDV [AGDV tetrapeptide]
EC50 of LIBS1 epitope exposure on CHO cells expressing αIIbβ3 (flow cytometry, 1 mM Mg2+ and 1 mM Ca2+): 1430 µM
